Reference: the supplement of paper PMC6755084

Tested on: F1*sub RNA substrate (template-directed ligation)
Assay: fraction ligated after 30 min (ligated reads / total reads); higher = more ligase activity; sequences stand for … in GAGACCGCAACTGAAAAGTTGT…AGTTCTGCACGTAGAAGCAAAAGGC
Conditions: 42 °C
How it was run: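 Oligo-pool templates of ligase ribozyme variants were PCR-amplified, T7-transcribed and gel-purified. Ligated and unligated bands were gel-separated, reverse transcribed with barcoded primers, and MiSeq-sequenced; core bases were filtered at quality ≥20. Fraction ligated per variant was ligated reads over total reads.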

Sequence	fraction ligated
TATACTTGTCGTAAGACACTTTGGTGGGTTG [3d941]	0.0139
TATACTTGTCGTAAGACACTTTGGTGGGTTGA [2d85]	0.0569
TATACTTGTCGTAAGACACTTTGGTGGTTGA [3d939]	0.00845
TATACTTGTCGTAAGACACTTTGTGGGTTGA [3d933]	0.0152
TATACTTGTCGTAAGACATTGGATGGGTTGA [3d918]	0.786
TATACTTGTCGTAAGACATTTGATGGGTTGA [3d919]	0.735
TATACTTGTCGTAAGACATTTGGAGGGTTGA [3d921]	0.0163
TATACTTGTCGTAAGACATTTGGATGGGTTA [3d923]	0.0964
TATACTTGTCGTAAGACATTTGGATGGGTTG [3d924]	0.714
TATACTTGTCGTAAGACATTTGGATGGGTTGA [2d82]	0.751
TATACTTGTCGTAAGACATTTGGATGGTTGA [3d922]	0.0978
TATACTTGTCGTAAGACATTTGGTGGGTTGA [3d920]	0.0527
TATACTTGTCGTAAGACCTTGGATGGGTTGA [3d911]	0.777
TATACTTGTCGTAAGACCTTTGATGGGTTGA [3d912]	0.706
TATACTTGTCGTAAGACCTTTGGAGGGTTGA [3d914]	0.0249
TATACTTGTCGTAAGACCTTTGGATGGGTTA [3d916]	0.059
TATACTTGTCGTAAGACCTTTGGATGGGTTG [3d917]	0.719
TATACTTGTCGTAAGACCTTTGGATGGGTTGA [2d81]	0.746
TATACTTGTCGTAAGACCTTTGGATGGTTGA [3d915]	0.0819
TATACTTGTCGTAAGACCTTTGGTGGGTTGA [3d913]	0.0382
TATACTTGTCGTAAGACTTTGGATGGGTTGA [3d893]	0.758
TATACTTGTCGTAAGCACTTGGATGGGTTGA [3d896]	0.645
TATACTTGTCGTAAGCACTTTGATGGGTTGA [3d897]	0.703

Sequence	fraction ligated
TATACTTGTCGTAAGCACTTTGGAGGGTTGA [3d899]	0.0271
TATACTTGTCGTAAGCACTTTGGATGGGTTA [3d901]	0.0196
TATACTTGTCGTAAGCACTTTGGATGGGTTG [3d902]	0.502
TATACTTGTCGTAAGCACTTTGGATGGGTTGA [2d79]	0.778
TATACTTGTCGTAAGCACTTTGGATGGTTGA [3d900]	0.0214
TATACTTGTCGTAAGCACTTTGGTGGGTTGA [3d898]	0.025
TATACTTGTCGTAAGCATTTGGATGGGTTGA [3d895]	0.747
TATACTTGTCGTAAGCCTTTGGATGGGTTGA [3d894]	0.68
TATACTTGTCGTAGAACTTTGGATGGGTTGA [3d873]	0.831
TATACTTGTCGTAGACACTTGGATGGGTTGA [3d876]	0.61
TATACTTGTCGTAGACACTTTGATGGGTTGA [3d877]	0.36
TATACTTGTCGTAGACACTTTGGAGGGTTGA [3d879]	0.0209
TATACTTGTCGTAGACACTTTGGATGGGTTA [3d881]	0.00736
TATACTTGTCGTAGACACTTTGGATGGGTTG [3d882]	0.232
TATACTTGTCGTAGACACTTTGGATGGGTTGA [2d77]	0.67
TATACTTGTCGTAGACACTTTGGATGGTTGA [3d880]	0.0359
TATACTTGTCGTAGACACTTTGGTGGGTTGA [3d878]	0.0282
TATACTTGTCGTAGACATTTGGATGGGTTGA [3d875]	0.759
TATACTTGTCGTAGACCTTTGGATGGGTTGA [3d874]	0.616
TATACTTGTCGTAGCACTTTGGATGGGTTGA [3d872]	0.787
TATACTTGTCGTGACACTTTGGATGGGTTGA [3d870]	0.708
TATACTTGTCTAAACACTTTGGATGGGTTGA [3d845]	0.791
TATACTTGTCTAAGAACTTTGGATGGGTTGA [3d847]	0.765

Sequence	fraction ligated
TATACTTGTCTAAGACACTTGGATGGGTTGA [3d850]	0.766
TATACTTGTCTAAGACACTTTGATGGGTTGA [3d851]	0.719
TATACTTGTCTAAGACACTTTGGAGGGTTGA [3d853]	0.0271
TATACTTGTCTAAGACACTTTGGATGGGTTA [3d855]	0.0424
TATACTTGTCTAAGACACTTTGGATGGGTTG [3d856]	0.633
TATACTTGTCTAAGACACTTTGGATGGGTTGA [2d75]	0.797
TATACTTGTCTAAGACACTTTGGATGGTTGA [3d854]	0.0769
TATACTTGTCTAAGACACTTTGGTGGGTTGA [3d852]	0.0368
TATACTTGTCTAAGACATTTGGATGGGTTGA [3d849]	0.811
TATACTTGTCTAAGACCTTTGGATGGGTTGA [3d848]	0.481
TATACTTGTCTAAGCACTTTGGATGGGTTGA [3d846]	0.779
TATACTTGTCTAGACACTTTGGATGGGTTGA [3d844]	0.732
TATACTTGTGAAGACACTTTGGATGGGTTGA [3d829]	0.756
TATACTTGTGTAAACACTTTGGATGGGTTGA [3d831]	0.799
TATACTTGTGTAAGAACTTTGGATGGGTTGA [3d833]	0.814
TATACTTGTGTAAGACACTTGGATGGGTTGA [3d836]	0.756
TATACTTGTGTAAGACACTTTGATGGGTTGA [3d837]	0.81
TATACTTGTGTAAGACACTTTGGAGGGTTGA [3d839]	0.0723
TATACTTGTGTAAGACACTTTGGATGGGTTA [3d841]	0.134
TATACTTGTGTAAGACACTTTGGATGGGTTG [3d842]	0.809
TATACTTGTGTAAGACACTTTGGATGGGTTGA [2d74]	0.805
TATACTTGTGTAAGACACTTTGGATGGTTGA [3d840]	0.109
TATACTTGTGTAAGACACTTTGGTGGGTTGA [3d838]	0.0565

Sequence	fraction ligated
TATACTTGTGTAAGACATTTGGATGGGTTGA [3d835]	0.764
TATACTTGTGTAAGACCTTTGGATGGGTTGA [3d834]	0.721
TATACTTGTGTAAGCACTTTGGATGGGTTGA [3d832]	0.776
TATACTTGTGTAGACACTTTGGATGGGTTGA [3d830]	0.776
TATACTTGTTAAGACACTTTGGATGGGTTGA [3d828]	0.793
TATACTTTCGAAGACACTTTGGATGGGTTGA [3d798]	0.451
TATACTTTCGTAAACACTTTGGATGGGTTGA [3d800]	0.307
TATACTTTCGTAAGAACTTTGGATGGGTTGA [3d802]	0.778
TATACTTTCGTAAGACACTTGGATGGGTTGA [3d805]	0.43
TATACTTTCGTAAGACACTTTGATGGGTTGA [3d806]	0.105
TATACTTTCGTAAGACACTTTGGAGGGTTGA [3d808]	0.00847
TATACTTTCGTAAGACACTTTGGATGGGTTA [3d810]	0.00702
TATACTTTCGTAAGACACTTTGGATGGGTTG [3d811]	0.145
TATACTTTCGTAAGACACTTTGGATGGGTTGA [2d72]	0.542
TATACTTTCGTAAGACACTTTGGATGGTTGA [3d809]	0.0312
TATACTTTCGTAAGACACTTTGGTGGGTTGA [3d807]	0.00703
TATACTTTCGTAAGACATTTGGATGGGTTGA [3d804]	0.754
TATACTTTCGTAAGACCTTTGGATGGGTTGA [3d803]	0.53
TATACTTTCGTAAGCACTTTGGATGGGTTGA [3d801]	0.539
TATACTTTCGTAGACACTTTGGATGGGTTGA [3d799]	0.268
TATACTTTCTAAGACACTTTGGATGGGTTGA [3d797]	0.562
TATACTTTGTAAGACACTTTGGATGGGTTGA [3d796]	0.74
TATATGTCGTAAGACACTTTGGATGGGTTGA [3d758]	0.57

Sequence	fraction ligated
TATATTGCGTAAGACACTTTGGATGGGTTGA [3d760]	0.355
TATATTGTCGAAGACACTTTGGATGGGTTGA [3d763]	0.376
TATATTGTCGTAAACACTTTGGATGGGTTGA [3d765]	0.367
TATATTGTCGTAAGAACTTTGGATGGGTTGA [3d767]	0.468
TATATTGTCGTAAGACACTTGGATGGGTTGA [3d770]	0.641
TATATTGTCGTAAGACACTTTGATGGGTTGA [3d771]	0.288
TATATTGTCGTAAGACACTTTGGAGGGTTGA [3d773]	0.0159
TATATTGTCGTAAGACACTTTGGATGGGTTA [3d775]	0.0168
TATATTGTCGTAAGACACTTTGGATGGGTTG [3d776]	0.214
TATATTGTCGTAAGACACTTTGGATGGGTTGA [2d70]	0.61
TATATTGTCGTAAGACACTTTGGATGGTTGA [3d774]	0.0779
TATATTGTCGTAAGACACTTTGGTGGGTTGA [3d772]	0.0169
TATATTGTCGTAAGACATTTGGATGGGTTGA [3d769]	0.632
TATATTGTCGTAAGACCTTTGGATGGGTTGA [3d768]	0.468
TATATTGTCGTAAGCACTTTGGATGGGTTGA [3d766]	0.411
TATATTGTCGTAGACACTTTGGATGGGTTGA [3d764]	0.499
TATATTGTCTAAGACACTTTGGATGGGTTGA [3d762]	0.27
TATATTGTGTAAGACACTTTGGATGGGTTGA [3d761]	0.778
TATATTTCGTAAGACACTTTGGATGGGTTGA [3d759]	0.245
TATCACGCGTAAGACACTTTGGATGGGTTGA [3d1294]	0.814
TATCACGTCGAAGACACTTTGGATGGGTTGA [3d1297]	0.781
